Reference: paper PMC11026450 (Scientific Reports, 2024)

Experiments:
[1] = system: PANC1 spheroids; assay: 3D-spheroid growth assay, PANC1; type: cell-based, human; details: 3D floating PANC1 spheroids, 0.5 µM, treated day 0, 2, 4, 7, 9 over 10 days; vs vehicle [0.2% DMSO] and DRx-150 [10 µM]; n = 5
Description: PANC1 cells were seeded at 2 × 10^3 in wells of a round bottom Nunclon™ Sphera™ 96 well-plate with ultra-low attachment coating (Thermo; #174925), containing 200 μL DMEM (2% FBS, 2 mM L-glutamine, 100 U/I Pen-Strep). To encourage spheroid formation, PANC1 cells were centrifuged at 250 × g for 10 min at room temperature. PANC1 spheroids were then allowed to grow for 3 days at 37 °C, 5% CO2, humidified air. Spheroids were then treated with appropriate concentration of DRx-peptide/afatinib by first removing 100 μL of media from each well (careful not to disturb spheroid), followed by addition of 100 μL drug at 2× concentration. Cells were treated five times over a 10 day period (day 0, 2, 4, 7 and 9). Spheroids were imaged on day 0, 2, 4, 7 and 10 using a Nikon Eclipse TS2 microscope and spheroid area quantified using Image J software. Data represented as a fold-difference of relative day 0 spheroid measurement (i.e., day 0 normalised to 1).

[2] = molecular target: T1, full-length human PDE8A1-MBP (human, UniProt O60658-1 1-829); assay: peptide or protein array; human c-RAF 20mer peptides SPOT-synthesised on cellulose membrane; far western approach: 0.1 μM PDE8A1-MBP overnight at 4 °C in 1x TBS, 5% glycerol, pH 7.4; detected with αMBP-HRP and ECL; MBP alone as negative control; signal normalised to the strongest binding peptide; details: both partners purified
T1 construct: Phosphodiesterase 8A, isoform PDE8A1, human, full length; the tag was detected with an anti-MBP-HRP antibody (Abcam ab49923); also called human recombinant PDE8A1-MBP; source: recombinant
T1 sequence (O60658 whole entry, canonical isoform): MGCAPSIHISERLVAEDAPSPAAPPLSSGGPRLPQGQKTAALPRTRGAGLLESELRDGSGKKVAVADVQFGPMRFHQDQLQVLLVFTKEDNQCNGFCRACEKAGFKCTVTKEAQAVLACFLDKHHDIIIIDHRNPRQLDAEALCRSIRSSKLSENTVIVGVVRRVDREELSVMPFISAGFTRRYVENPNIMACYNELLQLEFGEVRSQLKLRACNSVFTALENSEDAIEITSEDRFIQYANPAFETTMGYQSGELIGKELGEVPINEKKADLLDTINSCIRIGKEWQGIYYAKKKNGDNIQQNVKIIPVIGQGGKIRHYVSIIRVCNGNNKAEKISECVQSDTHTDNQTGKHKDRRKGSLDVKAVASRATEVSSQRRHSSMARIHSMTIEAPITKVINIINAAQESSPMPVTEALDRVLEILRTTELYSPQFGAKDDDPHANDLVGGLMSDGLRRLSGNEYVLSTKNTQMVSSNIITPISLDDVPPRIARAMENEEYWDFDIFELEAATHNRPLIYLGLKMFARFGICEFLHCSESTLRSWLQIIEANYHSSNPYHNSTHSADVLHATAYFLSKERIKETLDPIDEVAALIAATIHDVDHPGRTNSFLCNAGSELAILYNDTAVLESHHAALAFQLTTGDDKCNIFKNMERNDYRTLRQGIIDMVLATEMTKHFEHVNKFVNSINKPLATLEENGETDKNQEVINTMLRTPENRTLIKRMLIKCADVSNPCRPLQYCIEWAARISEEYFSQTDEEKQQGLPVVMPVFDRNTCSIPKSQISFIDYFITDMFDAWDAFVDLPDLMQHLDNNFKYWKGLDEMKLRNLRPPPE

Row | Molecule | relative spheroid area (fold-difference vs. Day 0) [1] | binding result [2]
1 | CN(C)C/C=C/C(=O)Nc1cc2c(Nc3ccc(F)c(Cl)c3)ncnc2cc1O[C@H]1CCOC1 [afatinib, afatinib dimaleate] | significantly attenuated | 
2 | HSLPKINRSASEPSLHRAAH (peptide, UniProt P04049 611-630, looked up, c-RAF, human, 20mer of the peptide array, residues H611–H630; source: synthetic peptide, SPOT synthesis on cellulose membrane) [human c-RAF peptide 123 (H611–H630)] |  | binds
3 | MKRLVADCVKKVKEERPLFP (peptide, UniProt P04049 581-600, looked up, c-RAF, human, 20mer of the peptide array, residues M581–P600; source: synthetic peptide, SPOT synthesis on cellulose membrane) [human c-RAF peptide 117 (M581–P600)] |  | binds
4 | NTSSPSSEGSLSQRQRSTST (peptide, UniProt P04049 241-260, looked up, c-RAF, human, 20mer of the peptide array, residues N241–T260; source: synthetic peptide, SPOT synthesis on cellulose membrane) [human c-RAF peptide 49 (N241–T260)] |  | binds
5 | FGYQRRASDDGKLTDPSKTS (peptide, UniProt P04049 36-55, looked up, c-RAF, human, 20mer of the peptide array, residues F36–S55; source: synthetic peptide, SPOT synthesis on cellulose membrane) [human c-RAF peptide 8 (F36–S55)] |  | binds
